# According to paper doi:10.1101/2021.02.22.432310:
# Molecular target: mGFP-UvrD (genomically integrated) (E. coli) (UniProt P03018)
# Test: single-molecule fluorescence microscopy
substance,measurement,value
mGFP-UvrD (genomically integrated) (from UniProt P03018 1-720) (enzyme),stoichiometry N,4
